Measurements reported in patent publication US8367389B2, “Methods, compositions and devices utilizing structurally stable cyanuric acid hydrolase” (Regents of the University of Minnesota, priority 2009, dated 2013).
Like-named read-outs stand apart in the source and are kept apart here.

Legend:
[1] = target: T1, cyanuric acid hydrolase from M. thermoacetica (Moorella thermoacetica, UniProt Q2RGM7); test: Metal chelator effects; type: biochemical, Moorella thermoacetica ATCC 39073; settings: for effect of chelator on activity: 5 mM chelator, 24 h incubation, room temperature
T1 construct: ORF Moth—2120 from M. thermoacetica ATCC 39073 was PCR amplified; His-tag (from pET28b+, cloned NdeI/HindIII) (N); made in house; host or cells: E. coli BRL21(DE3) pLysS, vector pET28b+::Moth_2120
T1 sequence (Q2RGM7 1-367): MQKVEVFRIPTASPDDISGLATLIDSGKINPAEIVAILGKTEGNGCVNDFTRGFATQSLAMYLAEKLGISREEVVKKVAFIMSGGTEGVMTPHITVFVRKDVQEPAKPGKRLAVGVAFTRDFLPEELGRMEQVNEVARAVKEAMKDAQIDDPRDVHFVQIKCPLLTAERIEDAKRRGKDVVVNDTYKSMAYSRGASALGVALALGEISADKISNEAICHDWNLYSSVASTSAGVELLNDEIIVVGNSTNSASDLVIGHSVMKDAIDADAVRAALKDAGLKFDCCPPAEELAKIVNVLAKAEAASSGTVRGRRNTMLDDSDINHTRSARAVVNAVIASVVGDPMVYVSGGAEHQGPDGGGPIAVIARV
Description: Metal chelator effects. Purified protein was incubated at room temperature with 5 mM 1,10-phenanthroline, 8-hydroxyquinoline-5-sulfonic acid, or ethylenediaminetetraacetic acid (EDTA) for 24 hours. PD-10 desalting columns (GE Healthcare) were used, as per the manufacturer's instructions, to remove the chelator from the enzyme. Enzymatic activity was measured with cyanuric acid as substrate, as described above.

[2] = target: T1, cyanuric acid hydrolase from M. thermoacetica; type: biochemical, Moorella thermoacetica ATCC 39073; settings: for activity as % of native activity: at higher concentrations (1.0 and 2.0 mM); for effect of metal on native enzyme activity: 0.2 mM
[3] = target: T2, Moorella cyanuric acid hydrolase (Moorella thermoacetica, UniProt Q2RGM7); test: Substrate specificity analysis; type: biochemical, Moorella thermoacetica ATCC 39073
T2 construct: ORF Moth—2120 from M. thermoacetica ATCC 39073 was PCR amplified; His-tag (from pET28b+, cloned NdeI/HindIII) (N); made in house; host or cells: E. coli BRL21(DE3) pLysS, vector pET28b+::Moth_2120
T2 sequence (Q2RGM7 1-367): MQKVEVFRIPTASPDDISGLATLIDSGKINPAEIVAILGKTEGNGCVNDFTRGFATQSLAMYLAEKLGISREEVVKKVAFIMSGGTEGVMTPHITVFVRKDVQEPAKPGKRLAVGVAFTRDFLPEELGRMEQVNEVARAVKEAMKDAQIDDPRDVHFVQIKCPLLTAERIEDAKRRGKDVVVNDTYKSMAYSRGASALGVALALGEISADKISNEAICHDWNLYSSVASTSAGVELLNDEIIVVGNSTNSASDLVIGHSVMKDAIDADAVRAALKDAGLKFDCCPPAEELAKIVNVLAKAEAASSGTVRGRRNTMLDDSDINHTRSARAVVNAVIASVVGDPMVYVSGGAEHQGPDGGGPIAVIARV
Description: (§1) Enzyme assay and kinetic constant determinations. Enzyme activity was monitored on a Beckman DU 640 spectrophotometer (Beckman Coulter, Fullerton, Calif.). Cyanuric acid and barbituric acid concentrations were measured at 214 nm (extinction coefficient=9200 cm^−1M^−1) and 256 nm, respectively. Reactions were carried out in 0.5 ml 25 mM Tris-HCl buffer, pH 8.0 with 100 μM cyanuric acid or barbituric acid at 30° C. Reactions were initiated by the addition of the enzyme. Kinetic parameters were determined by obtaining rates at cyanuric acid concentrations ranging from 10 to 110 μM. The data was plotted using Lineweaver-Burke plots.
Substrate specificity analysis. Seventeen compounds structurally analogous to cyanuric acid were tested as substrates: 5-nitrobarbituric acid, 5-methylbarbituric acid, 2-methylamino-4,6dihydroxy-s-triazine, 1,3,5-trimethoxy-s-triazine, 2-(3-methoxy propylamino)-4,6-dihydroxy-s-triazine, triphenoxy-s-triazine, 2-secbutyl-4,6-dihydroxy-s-triazine, N-phenyl ammelide, 2-ethylamino-4,6-dihydroxy-s-triazine, triisopropoxy-s-triazine, trimethyl isocyanurate, 1,3-dimethyl isocyanurate, hexazinone, 4,6-dihydroxy-2-mecapto pyrimidine, 4,6-dihydroxy-5-nitro-pyrimidine, barbituric acid and methyl isocyanurate. The compounds (100 μM) were incubated with 50 μg of purified enzyme in 25 mM Tris-HCl buffer (pH 8.0) for 30 min. Changes in the UV spectra were recorded. In cases where changes in the spectra were detected, an appropriate wavelength with absorbance differences between the substrate and product was chosen for further kinetic study. For N-methylisocyanurate, absorbance was measured at 214 nm (extinction coefficient=9500 cm^−1M^−1).

[4] = Temperature stability of the enzyme (30 min incubation prior to assay); type: biochemical
Description: FIG. 4. Stability of enzyme activity vs. temperature at pH 8.0 for purified cyanuric acid hydrolases from M. thermoacetica ATCC 39073 (●) compared with TrzD (▪) and AtzD (▴). Enzymes were maintained at the temperature indicated for 30 minutes prior to assay under standard conditions.
(§2) Temperature stability of the enzyme. The thermal stability of the enzyme was determined by incubating the enzyme at various temperatures for […] prior to activity determinations. Studies of the stability during storage were performed at 4° C. or −80° C. with or without additives. The additives were 0.2 mM of dithiothreitol (DTT), 10% ethylene glycol, 25% glycerol and 25% polyethylene glycol (PEG) 4000. The activity was checked every two weeks, as described above.

[5] = Enzyme assay and kinetic constant determinations (cyanuric acid, 214 nm); type: biochemical
Description: as §1

[6] = Effect of pH and temperature on enzymatic activity; type: biochemical
Description: Effect of pH and temperature on enzymatic activity. The optimum pH of the enzyme was determined at 30° C. with the following buffers: 25 mM […]; 25 mM Tris-HCl, pH 7-9; NaHCO3/Na2CO3, pH 9.5-10.5. The temperature optimum was determined by assaying the enzyme activity in 25 mM Tris-HCl, pH 8.0 at temperatures ranging from 25° C. to 70° C.

[7] = cyanuric acid, published values, cited from earlier work
[8] = target: T3, cyanuric acid hydrolase from M. thermoacetica ATCC 39073 (Moorella thermoacetica, UniProt Q2RGM7); test: Storage stability at 4° C. or −80° C. with or without additives; type: biochemical, Moorella thermoacetica ATCC 39073; settings: for Activity, 0 week: pH 8.0, 0 week; for Activity, 2 week: pH 8.0, 2 week; for Activity, 4 week: pH 8.0, 4 week; for Activity, 6 week: pH 8.0, 6 week; for Activity, 8 week: pH 8.0, 8 week
T3 construct: ORF Moth—2120 from M. thermoacetica ATCC 39073 was PCR amplified; His-tag (from pET28b+, cloned NdeI/HindIII) (N); made in house; host or cells: E. coli BRL21(DE3) pLysS, vector pET28b+::Moth_2120
T3 sequence (Q2RGM7 1-367): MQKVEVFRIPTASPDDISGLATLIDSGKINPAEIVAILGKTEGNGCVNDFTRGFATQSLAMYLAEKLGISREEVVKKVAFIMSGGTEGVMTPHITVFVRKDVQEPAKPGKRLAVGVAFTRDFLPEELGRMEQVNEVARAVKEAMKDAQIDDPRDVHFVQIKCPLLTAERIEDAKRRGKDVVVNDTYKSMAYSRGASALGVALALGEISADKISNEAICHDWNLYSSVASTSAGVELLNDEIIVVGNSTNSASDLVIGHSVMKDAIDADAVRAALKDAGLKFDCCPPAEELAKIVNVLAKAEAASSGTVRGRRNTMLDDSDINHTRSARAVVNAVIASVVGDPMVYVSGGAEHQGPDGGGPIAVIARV
Description: as §2

Molecule: O=S(=O)(O)c1ccc(O)c2ncccc12 [8-hydroxyquinoline-5-sulfonic acid]
- effect of chelator on activity [1]: failed to alter activity

Molecule: [Ca+2].[Cl-].[Cl-] [CaCl2]
- activity as % of native activity [2]: 121%
- Relative activity ([2]; metal salt 1.0 mM): 121 ± 7

Molecule: [Cl-].[Cl-].[Co+2] [CoCl2]
- Relative activity [2]: 92 ± 5

Molecule: [Cl][Cu][Cl] [CuCl2]
- effect of metal on native enzyme activity [2]: slight decreases in activity
- Relative activity ([2]; metal salt 0.2 mM): 83 ± 3

Molecule: O=C(O)CN(CCN(CC(=O)O)CC(=O)O)CC(=O)O [EDTA, ethylenediaminetetraacetic acid]
- effect of chelator on activity [1]: failed to alter activity

Molecule: [Cl][Fe]([Cl])[Cl] [FeCl3]
- Relative activity ([2]; metal salt 0.2 mM): 105 ± 4

Molecule: [Cl-].[Cl-].[Mg+2] [MgCl2]
- activity as % of native activity [2]: 119%
- Relative activity ([2]; metal salt 2.0 mM): 119 ± 2

Molecule: O=S(=O)([O-])[O-].[Mn+2] [MnSO4]
- Relative activity ([2]; metal salt 0.2 mM): 96 ± 3

Molecule: [Cl][Ni][Cl] [NiCl2]
- effect of metal on native enzyme activity [2]: slight decreases in activity
- Relative activity ([2]; metal salt 0.2 mM): 79 ± 3

Molecule: O=S(=O)([O-])[O-].[Zn+2] [ZnSO4]
- effect of metal on native enzyme activity [2]: greatest inhibitory affect
- Relative activity ([2]; metal salt 0.2 mM): 51 ± 4

Molecule: O=C1CC(=O)NC(=O)N1 [barbituric acid]
- detectable activity with compound as substrate ([3]; 100 μM, even with 50 μg of protein in a single assay): did not show detectable activity

Molecule: Cn1c(=O)[nH]c(=O)[nH]c1=O [methyl isocyanurate]
- rate relative to the preferred substrate cyanuric acid [3]: less than 1%
- rate of hydrolysis as substrate ([3]; 100 μM compound, 25 mM Tris-HCl pH 8.0): 0.13 µmol/min/mg

Molecule: c1cnc2c(c1)ccc1cccnc12 [o-phenanthroline, 1,10-phenanthroline]
- effect of chelator on activity [1]: failed to alter activity

B1: cyanuric acid hydrolase from M. thermoacetica ATCC 39073: recombinant His-tagged cyanuric acid hydrolase encoded by ORF Moth—2120 of Moorella thermoacetica ATCC 39073, expressed in E. coli (protein, listed as Moorella thermoacetica)
chain: MQKVEVFRIPTASPDDISGLATLIDSGKINPAEIVAILGKTEGNGCVNDFTRGFATQSLAMYLAEKLGISREEVVKKVAFIMSGGTEGVMTPHITVFVRKDVQEPAKPGKRLAVGVAFTRDFLPEELGRMEQVNEVARAVKEAMKDAQIDDPRDVHFVQIKCPLLTAERIEDAKRRGKDVVVNDTYKSMAYSRGASALGVALALGEISADKISNEAICHDWNLYSSVASTSAGVELLNDEIIVVGNSTNSASDLVIGHSVMKDAIDADAVRAALKDAGLKFDCCPPAEELAKIVNVLAKAEAASSGTVRGRRNTMLDDSDINHTRSARAVVNAVIASVVGDPMVYVSGGAEHQGPDGGGPIAVIARV
modifications: His tag
notes: recombinant His-tagged cyanuric acid hydrolase encoded by ORF Moth—2120 of Moorella thermoacetica ATCC 39073, expressed in E. coli
- initial activity remaining after 30 min at 50° C. ([4]; 30 min, pH 8.0): stable
- initial activity remaining after 30 min at 50° C. ([4]; 30 min, pH 8.0, listed as Moorella enzyme): 95%
- initial activity remaining after 30 min at 70° C. ([4]; 70° C., 30 min, pH 8.0): 30%
- Thermostability: temperature where activity above 50% after a 30 min incubation ([4]; pH 8.0, 30 min incubation): 20-65 °C
- specific activity with cyanuric acid ([5]; 100 μM cyanuric acid, 25 mM Tris-HCl pH 8.0, 30° C.): 15.7 µmol/min/mg
- Km ([5]; cyanuric acid 10 to 110 μM, Lineweaver-Burke, read-out: Km with cyanuric acid as substrate): 110 µM
- kcat ([5]; cyanuric acid as substrate): 10.6 s⁻¹
- Temp, optimum ([6]; 25 mM Tris-HCl pH 8.0, range 25-70° C.): 70 °C
- pH optimum ([6]; 30° C., pH 5.5 to 10.5): 8.0
- maximum activity at 70° C. ([6]; 70° C., pH 8.0): 24 μmol per min per mg protein
- Metal affects on activity [2]: Cu(II), Zn(I), Ni(II)
- kcat (literature) [7]: 10.6 s⁻¹
- Km ([7]; read-out: Km (literature)): 110 µM
- Influence of chelators on activity [1]: No affect EDTA, o-
- Known substrates [3]: Cyanuric acid, N-
- loss of activity after 8 weeks ([8]; both storage temperatures (4° C. and −80° C.)): no loss of activity
- specific activity after 8 weeks as % of initial specific activity ([8]; stored at 4° C., 8 weeks): 142%
- Activity, 0 week ([8]; stored at 4° C.): 11.9 ± 0.23 μmol per min per mg protein
- Activity, 2 week ([8]; stored at 4° C.): 12.5 ± 0.2 μmol per min per mg protein
- Activity, 4 week ([8]; stored at 4° C.): 15.9 ± 0.7 μmol per min per mg protein
- Activity, 6 week ([8]; stored at 4° C.): 16.6 ± 0.9 μmol per min per mg protein
- Activity, 8 week ([8]; stored at 4° C.): 16.9 ± 1^ μmol per min per mg protein
- Activity, 0 week ([8]; stored at −80° C.): 11.9 ± 0.2 μmol per min per mg protein
- Activity, 2 week ([8]; stored at −80° C.): 14.9 ± 0.1 μmol per min per mg protein
- Activity, 4 week ([8]; stored at −80° C.): 14.3 ± 0.3 μmol per min per mg protein
- Activity, 6 week ([8]; stored at −80° C.): 12.3 ± 0.4 μmol per min per mg protein
- Activity, 8 week ([8]; stored at −80° C.): 11.7 ± 1.1 μmol per min per mg protein
